± gives the uncertainty stated by the source.

The nature of the data set: amyloid nucleation score (Sup35N fusion, yeast selection) (log enrichment); library NNK3; higher = more nucleation; inactive = no reads after selection. In short, it runs like this: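 Sup35N was fused to peptides of 20 random codons and expressed in psi-negative yeast, which were induced with 100 μM copper sulfate for 24 hours and then grown on medium lacking adenine and uracil for 7 days at 30°C. Plasmid inserts from input and output were sequenced on Illumina. The nucleation score is the DiMSum log enrichment of output over input reads, centred on the mode score of non-aggregating sequences. Sequences with under 100 input reads were left out, and random libraries had three technical output replicates.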

As for TVMPLRMSSISGSAGTSA, the amyloid nucleation score entry is “inactive”. Consider FAFKLWRKVQYVFHLFYPAR, for which the amyloid nucleation score stood at 0.342 ± 0.69. With GQHSRSLDTSACCPT the entry was “inactive”. With HVKDVMQRNFRVMGSSSR the entry was “inactive”; with GVYVWFAALNNPTVEGFLNS, “inactive”; with NWLMSTTFRAYGV, “inactive”.

Regarding YNDNSNCSARMGLI, the amyloid nucleation score result is “inactive”.

Regarding KVCVIVVLLHTTRCQKFYQY, the amyloid nucleation score entry is “inactive”.

As for NLDIWNLRQWSGVVYLV, the amyloid nucleation score was 0.751 ± 0.14. In the case of LPGCVSEFG it was “inactive”; in that of QIIYISSLFTYDSYYKFRLH, “inactive”; in that of LHICTLYREVVVAAQCS, “inactive”. With IIVMDCNGKLNGINHWVRVD the entry was “inactive”; with MWWGWKRFHSMRNYDAYIQM, “inactive”. In the case of YTERYS it was -0.265 ± 0.96; in that of NSETRRIHSKVKLMLIVRLA, “inactive”.

Consider FMDKLIESFTYCWCTFGYAH, for which the amyloid nucleation score entry is “inactive”.

On to MFEIIGHRRMLFIFYNMCYR, for which the amyloid nucleation score result is “inactive”. In the case of FSGCWRWNNQ it was “inactive”. With LSFRTQALFYFVMLYGIWRA the entry was “inactive”; with SIVDSVQQVSVRWAMYT, -0.433 ± 1.8; with VFFYSDHVLCVYFVSLYSFS, 0.386 ± 0.42. LLKHMSLFVLRSSNR: the amyloid nucleation score result was “inactive”. With FRNLSDVLVRLFPVQLLSYP the entry was “inactive”.

Regarding GIFEFKLNSLNSNERGLRAG, the amyloid nucleation score result was “inactive”. With KCGFYRTVFCSRVCVRS the entry was “inactive”. Consider DCGKWNLWSQPLGTG, for which the amyloid nucleation score result was “inactive”.

Take LSINLASSSGVSVLLKGSNL: the amyloid nucleation score stood at 0.87 ± 0.24. In the case of VDVDPVSSD it was “inactive”; in that of FRKTGFSFVFLIVDEYFICN, “inactive”; in that of YSAQFITSIGLGQKLFS, “inactive”. With IQCYNLSLPAGGEKLVRKRV the entry was “inactive”. With AVIFFYRVISFLRWSFTLPV the entry was “inactive”; with YFQGWSMVCSDVSTGKSVVM, “inactive”; with TPCAKTIELHWCVVERRSSY, “inactive”.

KNTSIK: the amyloid nucleation score entry is “inactive”. In the case of LLMGSSSSV it was “inactive”; in that of RFLLYPAPWRVFAIPYSEHL, “inactive”; in that of IRFYQKCVLSACVTSTRIMV, “inactive”. In the case of GLGPSCSQYKP it was “inactive”; in that of YLKVADVSLHLSHDLTYLLM, “inactive”. With SFAWVS the entry was “inactive”; with KEVTSLVLIVFT, 0.58 ± 0.17; with CCAYFVGLGCVQLTKWFSLL, “inactive”. For HCLSHTLQHNHTMISANSRS, the amyloid nucleation score entry is “inactive”. With DKEDHLSVFWAV, the amyloid nucleation score entry was “inactive”. In the case of YDIMVVWWFFVCSRSV it was “inactive”; in that of VWVDFGFPVHMIIL, “inactive”. On to VKCVYERRDGRLWLMILAMG, for which the amyloid nucleation score is -0.481 ± 0.52. With IMVKVW the entry was “inactive”; with FLLIIHHST, -0.126 ± 0.6. On to SFDCRRSSRL, for which the amyloid nucleation score result is “inactive”. In the case of MCKMLFSFLCLHKYCWVNVL it was “inactive”. With WRVSLWLGWNLFWTCSNPAD the entry was “inactive”; with MMLGVLYATLWPLLKLDCGE, “inactive”. With GVLSCLSIMIAISGLPGSEK the figure was 0.801 ± 0.2; with NSVRLCRCEVIGQTIRDHGF, “inactive”; with RYGFADSYMLFLFRYTPSSG, “inactive”.

In the case of FNFFTKVASDHRNI, the amyloid nucleation score entry is “inactive”. With MFWCDNSGIMGADKGVALSW the entry was “inactive”; with AHSRWVSQCDITR, “inactive”. In the case of ALIKFLEFKGRSAWSMRFIA it was “inactive”; in that of MGNAEEIAIHDSSAWVVVAR, “inactive”; in that of IVWEGSSPLVLIKHGICKQR, “inactive”. In the case of IISQAQFSVAYLLCWRQCYV it was 1.2 ± 0.082; in that of EKFRWQSISIEVECSMAVQH, “inactive”; in that of SWVVDITDRRSLFIDTPRFT, “inactive”. The substance LVFASSVSSSDLTLCVGSCM gave an amyloid nucleation score of -0.594 ± 2.4.

As to STTDRTWNGYDDILYTYLYF, the amyloid nucleation score result was “inactive”. In the case of YDGCDS it was “inactive”; in that of YFSAIFFDSLYMLYGSNRAV, 0.356 ± 0.24.

As for YSGSCNFVQVSVFKHWSGVY, the amyloid nucleation score entry is “inactive”. In the case of QTYMTLHETVRLWARMLSC it was “inactive”.

For HLVAVWVSWGILYRSVHCRS, the amyloid nucleation score entry was “inactive”. The substance NLASCFVSIVEGSHFVYC yielded an amyloid nucleation score of 1.9 ± 0.1.

With SKVKDDALPTTILCGTYNLN, the amyloid nucleation score result was “inactive”. For the substance RSNWPSTILTSWSARCHWLS, the amyloid nucleation score result was “inactive”. Turning to YPLDTVGFWEESKLFVGRGG, the amyloid nucleation score result was “inactive”. With TPPVWTSPSSRLASCFKGLW the figure was 1.31 ± 0.15; with NALLAFPYQGSMHKCGLGRY, “inactive”; with HYYVSTDLWSIMMYTILRPC, “inactive”.

In the case of MAVSRK, the amyloid nucleation score entry was “inactive”. Turning to AMILVRVYGVKRVWAYLLVW, the amyloid nucleation score result was “inactive”.

HTVVPNRVNSPCVWWLFFVW came in with an amyloid nucleation score of 1.3 ± 0.11. With YMLIKYGSL the figure was 0.449 ± 0.35; with YWNMKNFCSTTIIHRKGRFG, 0.65 ± 0.16.

Take TLNRLDSHGSFFRMNVREGV: the amyloid nucleation score result is “inactive”.

As for YLLDKYEVAFIPSHLVLHSP, the amyloid nucleation score result is “inactive”. With YICNY the entry was “inactive”; with LKVNIWLPGRPFTILWSPRR, “inactive”.

For the substance CDFGFRMEEESLQRR, the amyloid nucleation score entry is “inactive”. On to LNTGLLLLCG, for which the amyloid nucleation score entry is “inactive”. In the case of RPSSQVYGRWEIYIKYL it was “inactive”; in that of QTHSMGDSECYL, “inactive”; in that of SIDYADVK, “inactive”. Turning to WVVRYMDYSLMD, the amyloid nucleation score entry was “inactive”. In the case of AIIVCDC, the amyloid nucleation score entry was “inactive”.

(Values after the supplement of paper PMC12042874.)
